Experimental data from US20140328850A1 (Amgen, published 2014).
No end group written: not given here.

Assays:
[1] = biological target: T1, apelin 12 (UniProt Q9ULZ1 66-77); assay: BIAcore solution equilibrium binding: Ab A pre-incubated with apelin 12, injected over immobilised biotin-labeled apelin; one-site homogeneous model
T1 construct: domain: apelin 12
T1 peptide (looked up): RPRLSHKGPMPF
Procedure: Binding affinity of Ab A was determined using BIAcore solution equilibrium binding analysis. Briefly, biotin-labeled apelin was immobilized at high density on a neutravidin surface. Ab A was incubated with apelin 12 at RT for over 4 hours before injected over the immobilized surfaces. The dissociation equilibrium constant (Kd) was obtained from a nonlinear regression analysis of the competition curve using a one-site homogeneous binding model (KinExATM Pro software).

[2] = biological target: apelin (UniProt Q9ULZ1 65-77, limits assumed); assay: cell-based or functional assay
[3] = biological target: T2, F13A (also: biotinylated, position not given here); assay: ELISA: biotinylated peptide captured on neutravidin plate, antibody detected with HRP goat anti-mouse Fc, OD650; one point per peptide, antibody concentration not given
T2 construct: apelin 13 with A in place of the C-terminal F; also called peptide 4
T2 peptide: QRPRLSHKGPMPA
Procedure: (§1) The antibody binding site was mapped using an ELISA-based assay. Briefly, various biotinylated apelin peptides (SEQ ID NOs: 7-22) were captured onto neutravidin coated plates and incubated with apelin antibody. Bound antibody was detected with horseradish peroxidase-conjugated goat anti-mouse Fc in the presence of the chromogenic substrate. The absorbance was read at 650 nm. Ab A is believed to neutralize all active forms of apelin.

[4] = biological target: T3, apelin 12-4 (also: biotinylated, position not given here); assay: as above
T3 construct: also called peptide 13
T3 peptide: RPRLSHKGP
Procedure: as §1

[5] = biological target: T4, apelin 12-5 (also: biotinylated, position not given here); assay: as above
T4 construct: also called peptide 14
T4 peptide: RPRLSHKG
Procedure: as §1

[6] = biological target: T5, apelin 12-2 (also: biotinylated, position not given here); assay: as above
T5 construct: also called peptide 11
T5 peptide: RPRLSHKGPMP
Procedure: as §1

[7] = biological target: T6, pyro13 C-blot (N-terminal pGlu as printed; biotinylated; the sheet prints 'C-blot', meaning not explained); assay: as above
T6 construct: also called peptide 3
T6 peptide: ERPRLSHKGPMPF
Procedure: as §1

[8] = biological target: T7, apelin 12-3 (also: biotinylated, position not given here); assay: as above
T7 construct: also called peptide 12
T7 peptide: RPRLSHKGPM
Procedure: as §1

[9] = biological target: T8, apelin 11 (also: biotinylated, position not given here); assay: as above
T8 construct: also called peptide 6
T8 peptide: PRLSHKGPMPF
Procedure: as §1

Kd [1]: 6 nM
IC50: inhibition of the apelin-induced change of cAMP (HTRF ratio 665/620) in CHOK1-human APJ cells, 6 nM apelin, 500 nM forskolin [2]: 18.2 nM
binding result [3]: binds
binding result [4]: binds
binding result [5]: binds
binding result [6]: binds
binding result [7]: binds
binding result [8]: binds
binding result [9]: binds
B1: antibody A (Ab A) (antibody, V domains shown)
VH: NVQLVESGGGLVKPGGSLKLSCVASGFIFSDYVMSWVRQTPEKRLEWVATISDGGIYTSYPDNIKGRFTISRDNANNKLYLQMSHLRSEDTAMYFCSRAAITSDDFDFWGQGTALTVSS
VL: DIVMSQSPSSLAVSAGEKVTMSCKSSQSLLDSRTRKNYLAWYQQKPGQSPKLLISWASIRESGVPDRFTGSGSGTDFTLSISSVQAEDLAVYYCKQSYYLLTFGAGTKLELKR
notes: also called apelin antibody; apelin Ab
